# B1: Peptide C3 (peptide)
# peptide: SSFYRLRFELRYRAERSKT
# B2: Peptide C4 (peptide)
# peptide: SSFYRLRFELRYRAERSK
# B3: Peptide A2 (peptide)
# peptide: AAGSHPSRWAGMGRRLLLRS
# B4: Peptide C21 (peptide)
# peptide: RLRFELRYRAERSKTFT
# B5: Peptide C23 (peptide)
# peptide: RFELRYRAERSKTFT
# B6: Peptide C8 (peptide)
# peptide: SSFYRLRFELRYRA
# B7: Peptide C12 (peptide)
# peptide: SSFYRLRFEL
# B8: Peptide C26 (peptide)
# peptide: LRYRAERSKTFT
# B9: Peptide A7 (peptide)
# peptide: AAGSHPSRWAGMGRR
# B10: Peptide C10 (peptide)
# peptide: SSFYRLRFELRY
# B11: Peptide C14 (peptide)
# peptide: SSFYRLRF
# B12: Peptide A5 (peptide)
# peptide: AAGSHPSRWAGMGRRLL
# B13: Peptide A9 (peptide)
# peptide: AAGSHPSRWAGMG
# B14: Peptide C30 (peptide)
# peptide: AERSKTFT
# B15: Peptide C13 (peptide)
# peptide: SSFYRLRFE
# B16: Peptide C31 (peptide)
# peptide: ERSKTFT
# notes: also called ERSKTFT
# B17: Peptide C29 (peptide)
# peptide: RAERSKTFT
# B18: Peptide C11 (peptide)
# peptide: SSFYRLRFELR
# B19: Peptide A11 (peptide)
# peptide: AAGSHPSRWAG
# B20: Peptide A8 (peptide)
# peptide: AAGSHPSRWAGMGR
# B21: Peptide C27 (peptide)
# peptide: RYRAERSKTFT
# B22: Peptide C25 (peptide)
# peptide: ELRYRAERSKTFT
# B23: Peptide C5 (peptide)
# peptide: SSFYRLRFELRYRAERS
# B24: Peptide C20 (peptide)
# peptide: YRLRFELRYRAERSKTFT
# B25: Peptide C16 (peptide)
# peptide: SSFYRL
# notes: also called SSFYRL
# B26: Peptide C15 (peptide)
# peptide: SSFYRLR
# notes: also called SSFYRLR
# B27: Peptide C28 (peptide)
# peptide: YRAERSKTFT
# B28: Peptide C22 (peptide)
# peptide: LRFELRYRAERSKTFT
# B29: Peptide A4 (peptide)
# peptide: AAGSHPSRWAGMGRRLLL
# B30: Peptide C6 (peptide)
# peptide: SSFYRLRFELRYRAER
# B31: Peptide A10 (peptide)
# peptide: AAGSHPSRWAGM
# B32: Peptide A3 (peptide)
# peptide: AAGSHPSRWAGMGRRLLLR
# B33: Peptide C7 (peptide)
# peptide: SSFYRLRFELRYRAE
# B34: Peptide C24 (peptide)
# peptide: FELRYRAERSKTFT
# B35: Peptide B34 (peptide)
# peptide: PRSTPSLTTKAVLLVRKFQNA
# notes: alanine-scan variant of the domain II 21-mer
# B36: Peptide B40 (peptide)
# peptide: PRSTPSLTTKAVLLARKFQNS
# notes: as for B35
# B37: Peptide B44 (peptide)
# peptide: PRSTPSLTTAAVLLVRKFQNS
# notes: as for B35
# B38: Peptide B47 (peptide)
# peptide: PRSTPSATTKAVLLVRKFQNS
# notes: as for B35
# B39: Peptide B46 (peptide)
# peptide: PRSTPSLATKAVLLVRKFQNS
# notes: as for B35
# B40: Peptide B39 (peptide)
# peptide: PRSTPSLTTKAVLLVAKFQNS
# notes: as for B35
# B41: Peptide B36 (peptide)
# peptide: PRSTPSLTTKAVLLVRKFANS
# notes: as for B35
# B42: Peptide B35 (peptide)
# peptide: PRSTPSLTTKAVLLVRKFQAS
# notes: as for B35
# B43: Peptide B38 (peptide)
# peptide: PRSTPSLTTKAVLLVRAFQNS
# notes: as for B35
# B44: Peptide B41 (peptide)
# peptide: PRSTPSLTTKAVLAVRKFQNS
# notes: as for B35
# B45: Peptide B42 (peptide)
# peptide: PRSTPSLTTKAVALVRKFQNS
# notes: as for B35
# B46: Peptide B43 (peptide)
# peptide: PRSTPSLTTKAALLVRKFQNS
# notes: as for B35
# B47: Peptide B45 (peptide)
# peptide: PRSTPSLTAKAVLLVRKFQNS
# notes: as for B35
# B48: Peptide B37 (peptide)
# peptide: PRSTPSLTTKAVLLVRKAQNS
# notes: as for B35
# B49: Peptide C18 (peptide)
# peptide: SFYRLRFELRYRAERSKTFT
# B50: Peptide C19 (peptide)
# peptide: FYRLRFELRYRAERSKTFT
# B51: Peptide C2 (peptide)
# peptide: SSFYRLRFELRYRAERSKTF
# B52: Peptide C32 (peptide)
# peptide: RSKTFT
# notes: also called RSKTFT
# B53: Peptide C34 (peptide)
# peptide: SSFYRLRFELRYRAERSKTFA
# B54: Peptide C45 (peptide)
# peptide: SSFYRLRFALRYRAERSKTFT
# notes: alanine-scan variant of the domain III 21-mer
# B55: Peptide C36 (peptide)
# peptide: SSFYRLRFELRYRAERSKAFT
# notes: as for B54
# B56: Peptide C39 (peptide)
# peptide: SSFYRLRFELRYRAEASKTFT
# notes: as for B54
# B57: Peptide C46 (peptide)
# peptide: SSFYRLRAELRYRAERSKTFT
# notes: as for B54
# B58: Peptide C44 (peptide)
# peptide: SSFYRLRFEARYRAERSKTFT
# notes: as for B54
# B59: Peptide C40 (peptide)
# peptide: SSFYRLRFELRYRAARSKTFT
# notes: as for B54
# B60: Peptide C41 (peptide)
# peptide: SSFYRLRFELRYAAERSKTFT
# notes: as for B54
# B61: Peptide C35 (peptide)
# peptide: SSFYRLRFELRYRAERSKTAT
# notes: as for B54
# B62: Peptide C37 (peptide)
# peptide: SSFYRLRFELRYRAERSATFT
# notes: as for B54
# B63: Peptide C43 (peptide)
# peptide: SSFYRLRFELAYRAERSKTFT
# notes: as for B54
# B64: Peptide C42 (peptide)
# peptide: SSFYRLRFELRARAERSKTFT
# notes: as for B54
# B65: Peptide C38 (peptide)
# peptide: SSFYRLRFELRYRAERAKTFT
# notes: as for B54
# B66: Peptide C47 (peptide)
# peptide: SSFYRLAFELRYRAERSKTFT
# notes: as for B54
# B67: Peptide C9 (peptide)
# peptide: SSFYRLRFELRYR
# Biological target: T1, recombinant human IL-6 (human, UniProt P05231 30-212, labeled with radioactive iodine)
# T1 construct: Labeled probe in solution, added to wells that carry the synthetic peptides; also called IL-6 ligand; Interleukin-6
# Experiment: radioiodinated IL-6 on peptide array
# Protocol: Synthetic peptide arrays were constructed in 96-well microtiter plates in accordance with the method set forth in WO 91/02714 (Saxinger), and used to test the binding of recombinant human IL-6 that had been labeled with radioactive iodine (radiolabeling by standard methods). After incubating the radiolabeled IL-6 ligand in a well with each synthetic peptide, a washing step was performed to remove unbound label, and the relative level of radioactivity remaining in each well of the plate was evaluated to determine the relative affinity of each peptide for IL-6 ligand.
row,Binder,Counts/minute bound [counts/minute]
1,B1,8210
2,B2,7620
3,B3,9760
4,B4,5990
5,B5,5310
6,B6,2510
7,B7,1030
8,B8,6380
9,B9,1340
10,B10,1350
11,B11,952
12,B12,2750
13,B13,1470
14,B14,1200
15,B15,1020
16,B16,1030
17,B17,1430
18,B18,1130
19,B19,1430
20,B20,1480
21,B21,3150
22,B22,2200
23,B23,4710

row,Binder,Counts/minute bound [counts/minute]
1,B24,7570
2,B25,865
3,B26,991
4,B27,2400
5,B28,9610
6,B29,5280
7,B30,2650
8,B31,1440
9,B32,8010
10,B33,1820
11,B34,5110
12,B35,11400
13,B36,4540
14,B37,19500
15,B38,8570
16,B39,7680
17,B40,10800
18,B41,10100
19,B42,13200
20,B43,11100
21,B44,3760
22,B45,3840
23,B46,7160

row,Binder,Counts/minute bound [counts/minute]
1,B47,7490
2,B48,11600
3,B49,12800
4,B50,10100
5,B51,13800
6,B52,1340
7,B53,17000
8,B54,26800
9,B55,15000
10,B56,3430
11,B57,13400
12,B58,14100
13,B59,17300
14,B60,6740
15,B61,14800
16,B62,7220
17,B63,7550
18,B64,17500
19,B65,12300
20,B66,9760
21,B67,2170
